“And” between values parts separate entries of the source, which are not always exact repeats. Identical values can stand only once.
How the values were obtained:
Format in all cases: cell-based, human
hESC-derived EPs [1] = test: RNA-sequencing of EPs treated with WNT5A
Method: Total RNA was extracted as described elsewhere herein and RNA quality was assessed using 2100 Bioanalyzer (Agilent Genomics). Samples with RIN≥9 preceded to library preparation using TruSeq stranded mRNA Library Prep Kit LT (Illumina) according to the manufacturer's protocol. Library concentration was determined by qPCR (KAPA Library Quantification Kit) to pool equal amounts of libraries with different adaptor indexes. Sequencing was performed using NextSeq500 (Illumina).
After preliminary analyses, showing a significant Pearson Correlation Coeficient for gene expression, two biological replicates were concatenated and analysed as single samples. This step yielded four samples, two for each treatment (5 days and 12h), as well as untreated samples. All reads were considered single-end in the bioinformatic analyses.
For Venn diagram, TFactS analysis and Gene enrichment analysis (GSEA), sequencing reads were first aligned using TopHat and the gene differential expression were assembled and analyzed using Cufflinks. […] To predict which transcription factors are responsible to the gene changes in the sequencing result, TFactS analysis was performed by inputting up and down regulation gene lists. […] For GSEA (http://software.broadinstitute.org/gsea/index.jsp), all input files were generated through GenePattern and the analysis was performed based on the instruction from Broad institute GSEA user guide with the following parameter: phenotype labels as 5dUT versus 5dWNT5A, 1000 genes set of permutations, weighted enrichment statistic, gene sets between 15 to 500, with log 2 ratio of class as metric for ranking genes. […] Data GEO submission number: GSE 90785.

c-JUN = test: p-c-JUN immunofluorescence in EPs; conditions: WNT5A short-term treatment (24h in FIG. 6G)
Method: (§1) Cells were incubated with 5% donkey serum (Jackson ImmunoResearch Laboratories) in PBST (PBS+0.1% Triton-X) for 30 min to avoid nonspecific binding of the antibody and to permeabilize the cells. Primary antibodies, diluted in 5% donkey serum in PBST, were then added and incubated at 4° C. overnight with shaking. After primary antibody incubation, cells were washed 3 times with PBST and secondary antibodies conjugated with Alexa-Fluor Dyes (Jackson ImmunoResearch Laboratories) and diluted in 5% donkey serum in PBST were added to the cells for 30 min at RT. Then, cells were thrice washed with PBST and nuclei were stained with Dapi (Roche Diagnostics). For imaging, Leica DMI6000 or confocal Leica TCS SPE was used. Images were initially processed by LAS X software and then further analyzed and quantified using ImageJ software (NIH, W Rasband, http://rsb.info.nih.gov/ij) using cell counter plug-in. Typically, at least 5 randomly selected images were counted per condition.

[2] = test system: canonical β-catenin-dependent pathway; test: TOPFLASH reporter assay; conditions: 100 or 500 ng/ml WNT5A, 3 days
Method: For TOPFLASH reporter assay, 80,000 EPs were transfected with 0.5 μg of TOPFLASH (Addgene #12456) or FOPFLASH (Addgene #12457) from Dr. Randall Moon, together with 0.25 μg pRLTK using Lipofectamine 2000 (Invitrogen) for 48h. Cells were then treated with CHIR99021 (as positive control), DMSO (mock control) or WNT5A for 3 days before collecting the samples. Luciferase assay was performed using Dual luciferase assay system (Promega) which Luciferase and Renilla signal were measured by TD20/20 Luminometer (Turner designs).

JNK = test: Western blot for phosphorylated JNK and total JNK; conditions: short-term (12h) treatment, 500 ng/ml WNT5A
Method: ISL1-EGFP hESCs were differentiated into EPs and first balanced with basal media (DMEM with 1% BSA and NEAA) for 6h and then treated with 500 ng/ml WNT5A in basal media. After 12h, cell lysates were collected as imilion of EPs were pelleted, PBS washed and resuspended in 250 μl of lysis buffer (10 mM HEPES pH7.5, 10 mM MgCl2, 5 mM KCl, 0.1 mM EDTA pH8, 0.1% TritonX-100, 0.2 mM PMSF, 1 mM DTT, 1 tab of Complete Protease Inhibitor Cocktail (Roche)). Cell lysates were centrifuged 12,000 g at 4° C. for 15 min and their supernatants were collected. BCA assay were performed using Pierce BCA protein assay kit (Thermo) to determine protein concentration. For Western blot, […] of protein were denatured with 4x Laemmeli buffer (40% glycerol, 8% SDS, 240 mM Tris-HCl pH6.8, 5% β-mercaptoethanol, 12.5 mM EDTA, 0.04% bromophenol blue) at 95° C. 3 min and resolved in 8% SDS-PAGE. PVDF membranes (BioRad) were used for transfer and membrane were blocked with 5% BSA in Tris-buffered saline with 1% Tween 20 (TBST) for 1h before applying primary antibody. Membranes were washed thrice for 10 min and anti-rabbit IgG-HRP (GE Life Science) were added for 3h at RT, followed by three washes. HyGLO™ Quick Spray Chemiluminescent HRP Antibody Detection Reagent (Denville Scientific Inc.) was used to detect antigen and the membrane was developed using CL-XPosure Film (Thermo Scientific). […]

EPs [3] = test: Proliferation by phospho-histone H3 (pH3) staining after WNT5A treatment
Method: as §1

EPs [4] = test: Scratch assay (cell migration); conditions: 100 or 500 ng/ml WNT5A, 30h
Method: EPs were dissociated and seeded into 12 well-plate to reach 90% confluence before a scratch was made. 200 μl pipette tip was used to create a smooth scratch and followed by 3h of mitomycin C treatment. Cells were then washed thrice with PBS and B27 media with or without WNT5A was added. Pictures of the scratch wound were taken at 0, 6, 12, 18, 24 and 30h after scratch to observe cell migration. Pictures were analyzed by counting cells migrating into the gap using ImageJ.

hESC-derived EPs [5] = test: Transwell migration and chemotaxis assay; conditions: 100, 500 ng/ml WNT5A in bottom well
Method: Transwell assays were performed using FluoroBlock Insert, […] pore size (Corning). The bottom 24 wells and the insert of transwell were coated with Geltrex to retained cells. At the experiment day, 1.5×10^5 hESC-derived EPs were seeded in each well at the transwell insert in B27 media with 10 μM Y-27632 and the well bottoms were replenished with either B27 media as control, B27 media+100 or 500 ng/ml WNT5A, or conditional media from Wk9.1, 17.5h and 20.1. After one week, the cell attached to the bottom wells were stained with Dapi and were counted.

[6] = 5-day long treatment with WNT5A

B1: WNT5A: secreted growth factor from the human pancreatic niche (R&D), used at 100 or 500 ng/ml (protein)
chain: IIGAQPLCSQLAGLSQGQKKLCHLYQDHMQYIGEGAKTGIKECQYQFRHRRWNCSTVDNTSVFGRVMQIGSRETAFTYAVSAAGVVNAMSRACREGELSTCGCSRAARPKDLPRDWLWGGCGDNIDYGYRFAKEFVDARERERIHAKGSYESARILMNLHNNEAGRRTVYNLADVACKCHGVSGSCSLKTCWLQLADFRKVGDALKEKYDSAAAMRLNSRGKLVQVNSRFNSPTTQDLVYIDPSPDYCVRNESTGSLGTQGRLCNKTSEGMDGCELMCCGRGYDQFKTVQTERCHCKFHWCCYVKCKKCTEIVDQFVCK
**Q.** Which results are given for B1?
**A.** downregulation of GCG (hESC-derived EPs [1]; 5-day WNT5A treatment): 5 fold; downregulation of MAFB (hESC-derived EPs [1]; 5-day WNT5A treatment): 3 fold; downregulation of NGN3 (hESC-derived EPs [1]; 5-day WNT5A treatment): 2 fold; up-regulation of GCK (hESC-derived EPs [1]; 5-day WNT5A treatment): 9 fold; up-regulation of INS (hESC-derived EPs [1]; 5-day WNT5A treatment): 81 fold; up-regulation of NEUROD1 (hESC-derived EPs [1]; 5-day WNT5A treatment): 56 fold; up-regulation of PCSK2 (hESC-derived EPs [1]; 5-day WNT5A treatment): 7 fold; up-regulation of SYT4 (hESC-derived EPs [1]; 5-day WNT5A treatment): 16 fold; expression of BMP3, 4, and 6, GDF5 and 9 (in words) (hESC-derived EPs [1]; [6]): downregulated; expression of DCN and BMP antagonist BMPER (in words) (hESC-derived EPs [1]; [6]): upregulated; increase in p-c-JUN (number of c-JUN+ cells) compared to untreated control (c-JUN): 9 fold and 6 fold; activity of β-catenin-dependent pathway, TOPFLASH (in words) [2]: did not significantly activate or antagonize; JNK expression and phosphorylation (in words) (JNK): increased; effect in EP proliferation (in words) (EPs [3]; 3 days of WNT5A treatment): modest effect; pH3+ cells (EPs [3]; 3 days of WNT5A treatment (1% in control)): 2%; cell mobility in scratch assays (in words) (EPs [4]): no increase in cell mobility; chemoattractant activity on EP migration (in words) (hESC-derived EPs [5]): does not act as a chemoattractant
